Measured values from paper PMC10002499 (2023).

Molecular target: PDCD6 (ALG-2) construct (rat, UniProt G3V7W1 1-191)
Test: SPR; 0 added Ca2+

Chain of PDCD6 (ALG-2) construct (G3V7W1 whole entry): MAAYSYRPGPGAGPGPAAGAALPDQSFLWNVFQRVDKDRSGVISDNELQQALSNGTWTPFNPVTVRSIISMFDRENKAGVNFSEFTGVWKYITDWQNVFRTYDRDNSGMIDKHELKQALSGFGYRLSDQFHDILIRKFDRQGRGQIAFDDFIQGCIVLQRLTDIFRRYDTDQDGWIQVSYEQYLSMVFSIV

B1: dysferlin extended C2DE region (aa 1284-1576) (domain or fragment)
chain: AIHHIPGFEMHETSRILDETEDTDLPYPPPQREANIYMVPQNIKPALQRTAIEILAWGLRNIKSYQMASVSSPSLVVECGGQTVQSCVIRNLRKNPNFDVCTLFMEVMLPREDLYCPPIVVKVIDNRQFGRRPVVGQCTIRSLENFLCDPYSAESPSPQGGPDDVSLLSPGEDVLIDIDDKEPLIPVQEEEFIDWWSKFFASIGEREKCGSYLEKDFDTLKVYDTQLENVEAFGGLSDFCNTFKLYRGKTQEDTEDPSVIGEFKGLFKIYPLPEDPAIPMPPRQFHQLAAQGP
  Kd: 160 nM
